{"source": "paper PMC12392869", "about": "(Advanced Materials (Deerfield Beach, Fla.), 2025)", "target": "T1, integrin α5β1 on cells (human (endogenous in K562 and MCF10A), UniProt P08648 42-1049; P05556 21-798)", "T1 construct": "integrin α5 subunit, endogenous; integrin β1 subunit, endogenous; also called intact α5β1; cellular α5β1; source: endogenous, on K562 cells (flow cytometry) and on MCF10A Cas-mScarlet cells (TIRF microscopy)", "T1 sequence (P08648 42-1049, chain 1 of 2)": "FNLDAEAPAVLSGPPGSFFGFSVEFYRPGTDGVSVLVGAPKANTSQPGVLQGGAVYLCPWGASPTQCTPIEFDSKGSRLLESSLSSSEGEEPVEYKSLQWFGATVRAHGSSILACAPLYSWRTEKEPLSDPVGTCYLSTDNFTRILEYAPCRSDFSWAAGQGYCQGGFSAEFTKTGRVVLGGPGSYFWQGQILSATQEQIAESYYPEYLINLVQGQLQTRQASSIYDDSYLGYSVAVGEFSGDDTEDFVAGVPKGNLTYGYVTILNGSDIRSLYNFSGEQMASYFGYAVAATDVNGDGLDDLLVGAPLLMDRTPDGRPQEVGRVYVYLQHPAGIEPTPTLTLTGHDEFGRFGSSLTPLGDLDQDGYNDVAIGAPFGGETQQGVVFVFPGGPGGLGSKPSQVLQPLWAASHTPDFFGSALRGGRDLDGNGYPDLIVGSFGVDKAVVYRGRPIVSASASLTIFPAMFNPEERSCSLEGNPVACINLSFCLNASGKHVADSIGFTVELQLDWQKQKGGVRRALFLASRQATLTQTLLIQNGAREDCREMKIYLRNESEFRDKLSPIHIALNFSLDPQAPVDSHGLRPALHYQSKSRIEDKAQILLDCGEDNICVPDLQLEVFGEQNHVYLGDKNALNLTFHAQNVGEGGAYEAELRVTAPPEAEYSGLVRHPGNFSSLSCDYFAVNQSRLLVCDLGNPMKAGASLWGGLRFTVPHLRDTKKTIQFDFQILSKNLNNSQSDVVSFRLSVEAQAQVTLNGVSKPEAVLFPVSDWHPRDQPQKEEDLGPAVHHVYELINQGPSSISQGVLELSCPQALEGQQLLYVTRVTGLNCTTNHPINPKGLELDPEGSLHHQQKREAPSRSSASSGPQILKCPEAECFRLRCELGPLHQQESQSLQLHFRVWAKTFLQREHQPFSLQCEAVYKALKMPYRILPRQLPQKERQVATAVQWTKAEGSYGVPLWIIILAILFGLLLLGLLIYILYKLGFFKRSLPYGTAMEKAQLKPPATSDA", "T1 sequence (P05556 21-798, chain 2 of 2)": "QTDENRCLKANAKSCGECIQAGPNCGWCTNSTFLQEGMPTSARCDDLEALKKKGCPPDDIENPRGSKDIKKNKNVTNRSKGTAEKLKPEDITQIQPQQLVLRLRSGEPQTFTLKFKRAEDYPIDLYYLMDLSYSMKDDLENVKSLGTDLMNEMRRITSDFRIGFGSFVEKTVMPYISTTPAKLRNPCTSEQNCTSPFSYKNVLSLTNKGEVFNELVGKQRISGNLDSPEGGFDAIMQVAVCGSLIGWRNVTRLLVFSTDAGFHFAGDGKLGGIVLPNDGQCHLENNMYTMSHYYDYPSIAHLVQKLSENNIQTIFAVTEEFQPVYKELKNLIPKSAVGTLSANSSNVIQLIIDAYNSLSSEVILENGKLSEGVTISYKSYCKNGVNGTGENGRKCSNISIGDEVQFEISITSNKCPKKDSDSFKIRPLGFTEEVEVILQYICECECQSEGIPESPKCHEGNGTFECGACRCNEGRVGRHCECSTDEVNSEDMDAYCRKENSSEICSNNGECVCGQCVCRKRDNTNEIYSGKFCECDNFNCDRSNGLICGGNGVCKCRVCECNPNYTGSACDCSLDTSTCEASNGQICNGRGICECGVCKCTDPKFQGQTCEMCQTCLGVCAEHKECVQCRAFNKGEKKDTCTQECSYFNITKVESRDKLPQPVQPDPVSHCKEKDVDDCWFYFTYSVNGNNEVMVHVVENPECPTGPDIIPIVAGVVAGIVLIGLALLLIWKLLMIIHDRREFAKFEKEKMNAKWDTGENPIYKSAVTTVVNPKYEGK", "experiment": "flow cytometry on cells; competition: unlabelled competitor titrated against 5 nM CF647-NeoNectin on K562 cells, L15 medium with 1% BSA, 2 h at room temperature; KD = EC50/(1 + CL/KD,L)", "conditions": "one partner purified", "data": [{"binder": "GRRGDGATGH (source: synthetic peptide)", "note": "[RGD peptide (GRRGDGATGH)]", "values": [{"measurement": "Kd", "result": 150, "unit": "µM"}]}]}
